This note sets out measurements from article PMC7429351, “Comparison of ligand binding and conformational stability of human calmodulin with its homolog from the malaria parasite Plasmodium falciparum” (FASEB BioAdvances, 2020).

The target of test [1] is Phosphodiesterase I, 3',5'-cyclic-nucleotide-specific (PDE) (bovine) (UniProt P14100).
Test [2] has as its target Calcineurin (PPase-2B, CaN) (bovine).
The target of test [3] is Myosin light chain kinase (MLCK), human, recombinant, GST-tagged (human) (UniProt Q15746).
Myosin light chain kinase (MLCK), human, recombinant, GST-tagged (human), sequence (Q15746 whole entry): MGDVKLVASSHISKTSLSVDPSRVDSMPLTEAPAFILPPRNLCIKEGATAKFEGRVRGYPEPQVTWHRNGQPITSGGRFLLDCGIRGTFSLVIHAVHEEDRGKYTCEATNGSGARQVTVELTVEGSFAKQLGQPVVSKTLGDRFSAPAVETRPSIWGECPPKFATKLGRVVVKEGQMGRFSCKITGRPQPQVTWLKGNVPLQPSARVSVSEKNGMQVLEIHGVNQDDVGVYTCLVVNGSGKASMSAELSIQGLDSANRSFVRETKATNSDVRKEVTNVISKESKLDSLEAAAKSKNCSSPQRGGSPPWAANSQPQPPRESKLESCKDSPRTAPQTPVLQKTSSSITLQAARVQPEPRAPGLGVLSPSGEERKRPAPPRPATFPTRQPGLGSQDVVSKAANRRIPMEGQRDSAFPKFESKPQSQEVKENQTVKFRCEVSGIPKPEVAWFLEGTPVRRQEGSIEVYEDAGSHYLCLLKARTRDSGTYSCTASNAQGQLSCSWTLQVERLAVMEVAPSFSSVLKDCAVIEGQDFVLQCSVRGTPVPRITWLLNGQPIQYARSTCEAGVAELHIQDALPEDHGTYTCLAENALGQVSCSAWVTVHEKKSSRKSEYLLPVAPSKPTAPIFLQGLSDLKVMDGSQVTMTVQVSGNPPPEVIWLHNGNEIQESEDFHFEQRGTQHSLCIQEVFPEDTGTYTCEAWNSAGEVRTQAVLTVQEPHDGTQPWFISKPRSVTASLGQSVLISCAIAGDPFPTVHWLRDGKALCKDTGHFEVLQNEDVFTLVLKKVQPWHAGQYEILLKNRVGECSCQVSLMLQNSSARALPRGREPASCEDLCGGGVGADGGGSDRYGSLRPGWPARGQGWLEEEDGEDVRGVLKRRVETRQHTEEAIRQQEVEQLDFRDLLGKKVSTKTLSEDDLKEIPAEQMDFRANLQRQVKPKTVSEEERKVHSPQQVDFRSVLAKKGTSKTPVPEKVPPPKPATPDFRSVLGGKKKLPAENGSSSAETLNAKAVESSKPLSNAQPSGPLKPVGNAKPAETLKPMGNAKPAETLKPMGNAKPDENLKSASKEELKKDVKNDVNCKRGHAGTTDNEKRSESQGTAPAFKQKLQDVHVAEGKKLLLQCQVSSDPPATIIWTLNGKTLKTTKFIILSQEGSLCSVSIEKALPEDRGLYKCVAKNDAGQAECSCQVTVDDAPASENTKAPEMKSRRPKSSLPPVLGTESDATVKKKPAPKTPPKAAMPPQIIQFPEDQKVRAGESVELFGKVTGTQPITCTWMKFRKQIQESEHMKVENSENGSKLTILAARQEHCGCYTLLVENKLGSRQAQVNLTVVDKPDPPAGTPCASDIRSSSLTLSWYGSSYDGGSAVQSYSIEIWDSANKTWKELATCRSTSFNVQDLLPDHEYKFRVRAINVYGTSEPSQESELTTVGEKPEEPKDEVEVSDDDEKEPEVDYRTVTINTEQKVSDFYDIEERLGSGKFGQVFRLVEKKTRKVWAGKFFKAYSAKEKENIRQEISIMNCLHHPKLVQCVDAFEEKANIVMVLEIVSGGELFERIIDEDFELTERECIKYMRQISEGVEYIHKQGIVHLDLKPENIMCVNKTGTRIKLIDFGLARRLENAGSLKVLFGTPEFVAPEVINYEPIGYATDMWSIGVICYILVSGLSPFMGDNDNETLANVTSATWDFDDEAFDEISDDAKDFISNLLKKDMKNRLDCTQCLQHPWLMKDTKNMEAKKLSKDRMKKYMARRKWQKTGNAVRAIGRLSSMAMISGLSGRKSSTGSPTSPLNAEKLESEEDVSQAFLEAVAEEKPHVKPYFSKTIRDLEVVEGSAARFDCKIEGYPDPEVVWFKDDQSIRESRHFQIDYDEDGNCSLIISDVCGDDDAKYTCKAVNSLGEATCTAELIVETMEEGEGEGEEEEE

Phosphodiesterase I, 3',5'-cyclic-nucleotide-specific (PDE) (bovine), sequence (P14100 whole entry): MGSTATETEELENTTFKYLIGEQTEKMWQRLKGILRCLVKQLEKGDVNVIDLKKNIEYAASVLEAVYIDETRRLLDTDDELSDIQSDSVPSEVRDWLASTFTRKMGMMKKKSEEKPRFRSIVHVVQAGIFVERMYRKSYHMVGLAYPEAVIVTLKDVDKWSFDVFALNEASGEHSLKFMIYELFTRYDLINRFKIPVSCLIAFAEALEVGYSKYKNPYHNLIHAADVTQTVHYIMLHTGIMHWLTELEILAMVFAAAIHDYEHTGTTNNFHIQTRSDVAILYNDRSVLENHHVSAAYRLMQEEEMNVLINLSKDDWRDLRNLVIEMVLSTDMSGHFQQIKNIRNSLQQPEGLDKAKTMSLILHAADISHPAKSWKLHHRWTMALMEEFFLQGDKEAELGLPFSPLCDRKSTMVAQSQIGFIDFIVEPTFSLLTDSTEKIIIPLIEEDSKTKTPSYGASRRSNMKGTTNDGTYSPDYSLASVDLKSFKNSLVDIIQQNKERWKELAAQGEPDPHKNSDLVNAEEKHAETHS

Substance “Human recombinant calmodulin (CaM) (from UniProt P0DP23 1-149) (natural protein)” registered an activation of PDE activity (mant-cGMP hydrolysis, 25°C, 150 nmol/L CaM, 6.5 nmol/L PDE, 1 mmol/L CaCl2), fold over the basal activity in test [1] of 2 fold. In test [2], the activation of CaN phosphatase activity (PNPP dephosphorylation) by CaM, fold over the basal activity was found to be 2.34 fold and the activation of CaN phosphatase activity (PNPP dephosphorylation, 28°C) against the CaM concentration, EC50 was 0.67 nM. The activation of MLCK kinase activity (ADP-Glo luminescence, room temperature, 0.5 mmol/L CaCl2) against the CaM concentration, EC50 in test [3] came out at 5.6 nM.
